From article PMC9409100 come the findings set out here.

Assay in all cases: pull-down
Data set [1] has as its target T1, His6-MBP-Csy4* (inactive Csy4) H29A;S50C (Pseudomonas aeruginosa) (UniProt Q02MM2).
T1 sequence: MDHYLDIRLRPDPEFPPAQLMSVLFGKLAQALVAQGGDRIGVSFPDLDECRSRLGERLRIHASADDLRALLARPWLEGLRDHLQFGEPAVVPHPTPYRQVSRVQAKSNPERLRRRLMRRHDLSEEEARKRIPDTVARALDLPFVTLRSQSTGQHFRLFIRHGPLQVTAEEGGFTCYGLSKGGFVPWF
The settings on record: no imidazole; RNA folded in 20 mM Tris-HCl pH 7.5, 100 mM (salt not given), 3 mM MgCl2; binding 90 min at 4 C on beads; RNA binding buffer 20 mM Tris-HCl pH 7.5, 100 mM ….

Data set [2] concerns the target T2, His6-Myc-Csy4* (inactive Csy4) H29A;S50C (Pseudomonas aeruginosa) (UniProt Q02MM2).
T2 sequence: T1 sequence
The settings on record: no imidazole; 'almost 50%'; RNA folded in 20 mM Tris-HCl pH 7.5, 100 mM (salt not given), 3 mM MgCl2; binding 90 min at 4 C on beads; RNA binding buffer 20 mM Tris-HCl pH 7.5, 100 mM ….

Data set [3] concerns the target T3, His6-TwinStrep-Csy4* (inactive Csy4) H29A;S50C (Pseudomonas aeruginosa) (UniProt Q02MM2).
T3 sequence: T1 sequence
The following applies: no imidazole; RNA folded in 20 mM Tris-HCl pH 7.5, 100 mM (salt not given), 3 mM MgCl2; binding 90 min at 4 C on beads; RNA binding buffer 20 mM Tris-HCl pH 7.5, 100 mM ….

On to “GGGUUCACUGCCGUAUAGGCAGAUAUAGAAGGUAGUGGAUCUCGACAGGGUUGAUAUGAGAACACACGAGUAAUCAACGGCUGUAAUGACGCUACGUCAUUGUUACAGCUCUCGUUUUCAUGUGUUCUCAGGUCACCCCUGCUGAGCUCUUUCUCUACCGUAAUUAC [Csy4-hairpin-tagged pri-miR398b-SL]”, for which the figures for the binding signal (% transcript depleted from supernatant) in data set [1], in data set [2] and in data set [3] were 80, 50 and under 10, respectively.
